Target: C-terminal region of APC (APC-CT), FLAG-tagged
Assay: AlphaScreen
Settings: Donor: Gag MA-GST-biotin; acceptor: APC(CT)-FLAG; n=3; parent: est. 2.1; read off a plot

| Substance | response |
| --- | --- |
| Fyn(10)WT (wild-type protein of the AlphaScreen with MA HBR mutants) 6A2T: HBR segment […] -> […] (K>A; K>A; R>A; R>A; K>A; K>A; K>T; K>T, in segment order) | 0.25 10^3 RLU |
| Fyn(10)WT (wild-type protein of the AlphaScreen with MA HBR mutants) RKswitch: HBR segment […] -> […] (K>R; K>R; R>K; R>K; K>R; K>R; K>R; K>R, in segment order) | 2.3 10^3 RLU |
